Data on one molecule can be found in patent US20200109188A1 (AstraZeneca / MedImmune, published 2020).

What all share (experiment): cell-based or functional assay
The target in assay [1] is HA of A/Fort Monmouth/1/47 (H1N1) virus (influenza A virus).
Assay [2] concerns the target HA of A/Kawasaki/9/86 (H1N1) virus (influenza A virus).
The target of assay [3] is HA of ca A/Texas/36/91 (H1N1) virus (influenza A virus).
Assay [4] deals with HA of ca A/Beijing/262/95 (H1N1) virus (influenza A virus).
Assay [5] has as its target HA of ca A/swine/Missouri/06 (H2N3) virus (influenza A virus).
Assay [6] concerns the target HA of ca A/Hong Kong/213/03 (H5N1) virus (influenza A virus).
The target in assay [7] is HA of ca A/teal/Hong Kong/W312/97 (H6N1) virus (influenza A virus).
Assay [8] concerns the target HA of H3-LA87 (A/Los Angeles/7/09 (H3N2)) virus (influenza A virus).
In assay [9] the target is HA of ca A/Sydney/5/97 (H3N2) virus (influenza A virus).
The target of assay [10] is HA of ca A/Panama/2007/99 (H3N2) virus (influenza A virus).
Assay [11] has as its target HA of A/Wisconsin/67/05 (H3N2) virus (influenza A virus).
For assay [12], the target named is HA of ca A/Netherlands/219/03 (H7N7) virus (influenza A virus).
For assay [13], the target named is HA of ca A/Brit. Columbia/CN-6/04 (H7N3-LP) virus (influenza A virus).

B1: Antibody 3 (antibody, V domains shown)
VH: QVQLQESGPGLVKPSQTLSLTCAISGDSVSSNNAVWNWIRQSPSRGLEWLGRTYYRSKWYNDYAESVKSRITVNPDTSKNQFSLHLKSVTPEDTAVFYCVRSGHITVFGVNVDAFDMWGQGTMVTVSS
VL: DIQMTQSPSSLSASVGDRVTITCRTSQSLSSYLHWYQQKPGKAPKLLIYAASSLQSGVPSRFSGSGSGTDFTLTISSLQPEDFATYYCQQSRTFGQGTKVEIK
As to B1, the “Neutralization IC50, H1-FM47” value in assay [1] was 0.92 µg/mL. The “Neutralization IC50, H1-Kaw86” value in assay [2] turned out to be 0.58 µg/mL. Further, the “Neutralization IC50, H1-TX91” value in assay [3] stood at 0.6 µg/mL. For the same molecule, in assay [4], the “Neutralization IC50, H1-BJ95” value was determined as 3.41 µg/mL. In addition, the “Neutralization IC50, H2-MO06” value in assay [5] was determined as 2.27 µg/mL. Also, the “Neutralization IC50, H5-HK03” value in assay [6] came out at 4.64 µg/mL. In addition, the “Neutralization IC50, H6-HK97” value in assay [7] came out at 1.77 µg/mL. Further, in [8], the “Neutralization IC50, H3-LA87” value came to 4.19 µg/mL. Also, the “Neutralization IC50, H3-Syd97” value in assay [9] turned out to be 3.75 µg/mL. In assay [10], the “Neutralization IC50, H3-Pa99” value was 17.7 µg/mL. In addition, the “Neutralization IC50, H3-Wl05” value in assay [11] is 2.44 µg/mL. The “Neutralization IC50, H7-NLD03” value in assay [12] is 4.78 µg/mL. For the same molecule, in assay [13], the “Neutralization IC50, H7-BC04” value was found to be 4.72 µg/mL.
